Test [1] deals with pig neutrophil Gβγ-activated PI3K B (p120/p101 heterodimer) (porcine).
In test [2] the target is pig neutrophil Gβγ-activated PI3K A (p117/p101 heterodimer) (porcine).
Test [3] has as its target porcine 6×HIS-tagged p120, Sf9-derived (pAcHLT p120), uncleaved (porcine).
Test [4] addresses porcine twice-cut p120 (thrombin cleaved, lacking approximately 40 amino-terminal residues) (porcine).
For test [5], the target named is Sf9-derived p101/p120 heterodimer ((EE)-p101 with 6×HIS-p120), formed in vivo by co-infection or reconstituted in vitro (porcine).

As for “Gβγ subunits (purified G protein βγ subunits)”, the PI3K (lipid kinase) activity in test [1] and in test [2] was over 100 × each time. For the same substance, the PI3K activity of free p120 in test [3] was determined as 1.7 fold. This substance also gave a PI3K activity of thrombin cleaved p120 in test [4] of 2.5 fold. Further, in test [5], the PI3K activity is over 100 ×.
